According to IntAct's records for PubMed 20098421:

B1: Trinucleotide repeat-containing gene 6C protein (Homo sapiens), Q9HCJ0 (parent)
chain: MEEKKKKKQEEKKKKEGAQKKAADQKTKVPEPTKTCSSQPQPAGTSTSTSTSTISSSNNGKRASASGQQPAASRYLPREVPPRFRQQEQKQLLKRGQPLPTGTLTSVSPTQGAGPAGVSPPPLPGAGTQHHPSKLQPDLSHSGLADHYENSHWGQQPTYRSEANCSWDKVIIDRTDKEAWPSITGTETESASECTTDTDSASNCGSENSSMATGSAQGNFTGHTKKTNGNNGTNGALVQSPSNQSALGAGGANSNGSAARVWGVATGSSSGLAHCSVSGGDGKMDTMIGDGRSQNCWGASNSNAGINLNLNPNANPAAWPVLGHEGTVATGNPSSICSPVSAIGQNMGNQNGNPTGTLGAWGNLLPQESTEPQTSTSQNVSFSAQPQNLNTDGPNNTNPMNSSPNPINAMQTNGLPNWGMAVGMGAIIPPHLQGLPGANGSSVSQVSGGSAEGISNSVWGLSPGNPATGNSNSGFSQGNGDTVNSALSAKQNGSSSAVQKEGSGGNAWDSGPPAGPGILAWGRGSGNNGVGNIHSGAWGHPSRSTSNGVNGEWGKPPNQHSNSDINGKGSTGWESPSVTSQNPTVQPGGEHMNSWAKAASSGTTASEGSSDGSGNHNEGSTGREGTGEGRRRDKGIIDQGHIQLPRNDLDPRVLSNTGWGQTPVKQNTAWEFEESPRSERKNDNGTEAWGCAATQASNSGGKNDGSIMNSTNTSSVSGWVNAPPAAVPANTGWGDSNNKAPSGPGVWGDSISSTAVSTAAAAKSGHAWSGAANQEDKSPTWGEPPKPKSQHWGDGQRSNPAWSAGGGDWADSSSVLGHLGDGKKNGSGWDADSNRSGSGWNDTTRSGNSGWGNSTNTKANPGTNWGETLKPGPQQNWASKPQDNNVSNWGGAASVKQTGTGWIGGPVPVKQKDSSEATGWEEPSPPSIRRKMEIDDGTSAWGDPSNYNNKTVNMWDRNNPVIQSSTTTNTTTTTTTTTSNTTHRVETPPPHQAGTQLNRSPLLGPVSSGWGEMPNVHSKTENSWGEPSSPSTLVDNGTAAWGKPPSSGSGWGDHPAEPPVAFGRAGAPVAASALCKPASKSMQEGWGSGGDEMNLSTSQWEDEEGDVWNNAASQESTSSCSSWGNAPKKGLQKGMKTSGKQDEAWIMSRLIKQLTDMGFPREPAEEALKSNNMNLDQAMSALLEKKVDVDKRGLGVTDHNGMAAKPLGCRPPISKESSVDRPTFLDKDGGLVEEPTPSPFLPSPSLKLPLSHSALPSQALGGIASGLGMQNLNSSRQIPSGNLGMFGNSGAAQARTMQQPPQPPVQPLNSSQPSLRAQVPQFLSPQVQAQLLQFAAKNIGLNPALLTSPINPQHMTMLNQLYQLQLAYQRLQIQQQMLQAQRNVSGSMRQQEQQVARTITNLQQQIQQHQRQLAQALLVKQPPPPPPPPHLSLHPSAGKSAMDSFPSHPQTPGLPDLQTKEQQSSPNTFAPYPLAGLNPNMNVNSMDMTGGLSVKDPSQSQSRLPQWTHPNSMDNLPSAASPLEQNPSKHGAIPGGLSIGPPGKSSIDDSYGRYDLIQNSESPASPPVAVPHSWSRAKSDSDKISNGSSINWPPEFHPGVPWKGLQNIDPENDPDVTPGSVPTGPTINTTIQDVNRYLLKSGGSSPPSSQNATLPSSSAWPLSASGYSSSFSSIASAPSVAGKLSDIKSTWSSGPTSHTQASLSHELWKVPRNSTAPTRPPPGLTNPKPSSTWGASPLGWTSSYSSGSAWSTDTSGRTSSWLVLRNLTPQIDGSTLRTLCLQHGPLITFHLNLTQGNAVVRYSSKEEAAKAQKSLHMCVLGNTTILAEFAGEEEVNRFLAQGQALPPTSSWQSSSASSQPRLSAAGSSHGLVRSDAGHWNAPCLGGKGSSELLWGGVPQYSSSLWGPPSADDSRVIGSPTPLTTLLPGDLLSGESL
B2: Trinucleotide repeat-containing gene 6C protein (Homo sapiens), Q9HCJ0-1 (parent)
chain: MATGSAQGNFTGHTKKTNGNNGTNGALVQSPSNQSALGAGGANSNGSAARVWGVATGSSSGLAHCSVSGGDGKMDTMIGDGRSQNCWGASNSNAGINLNLNPNANPAAWPVLGHEGTVATGNPSSICSPVSAIGQNMGNQNGNPTGTLGAWGNLLPQESTEPQTSTSQNVSFSAQPQNLNTDGPNNTNPMNSSPNPINAMQTNGLPNWGMAVGMGAIIPPHLQGLPGANGSSVSQVSGGSAEGISNSVWGLSPGNPATGNSNSGFSQGNGDTVNSALSAKQNGSSSAVQKEGSGGNAWDSGPPAGPGILAWGRGSGNNGVGNIHSGAWGHPSRSTSNGVNGEWGKPPNQHSNSDINGKGSTGWESPSVTSQNPTVQPGGEHMNSWAKAASSGTTASEGSSDGSGNHNEGSTGREGTGEGRRRDKGIIDQGHIQLPRNDLDPRVLSNTGWGQTPVKQNTAWEFEESPRSERKNDNGTEAWGCAATQASNSGGKNDGSIMNSTNTSSVSGWVNAPPAAVPANTGWGDSNNKAPSGPGVWGDSISSTAVSTAAAAKSGHAWSGAANQEDKSPTWGEPPKPKSQHWGDGQRSNPAWSAGGGDWADSSSVLGHLGDGKKNGSGWDADSNRSGSGWNDTTRSGNSGWGNSTNTKANPGTNWGETLKPGPQQNWASKPQDNNVSNWGGAASVKQTGTGWIGGPVPVKQKDSSEATGWEEPSPPSIRRKMEIDDGTSAWGDPSNYNNKTVNMWDRNNPVIQSSTTTNTTTTTTTTTSNTTHRVETPPPHQAGTQLNRSPLLGPGRKVSSGWGEMPNVHSKTENSWGEPSSPSTLVDNGTAAWGKPPSSGSGWGDHPAEPPVAFGRAGAPVAASALCKPASKSMQEGWGSGGDEMNLSTSQWEDEEGDVWNNAASQESTSSCSSWGNAPKKGLQKGMKTSGKQDEAWIMSRLIKQLTDMGFPREPAEEALKSNNMNLDQAMSALLEKKVDVDKRGLGVTDHNGMAAKPLGCRPPISKESSVDRPTFLDKDGGLVEEPTPSPFLPSPSLKLPLSHSALPSQALGGIASGLGMQNLNSSRQIPSGNLGMFGNSGAAQARTMQQPPQPPVQPLNSSQPSLRAQVPQFLSPQVQAQLLQFAAKNIGLNPALLTSPINPQHMTMLNQLYQLQLAYQRLQIQQQMLQAQRNVSGSMRQQEQQVARTITNLQQQIQQHQRQLAQALLVKQPPPPPPPPHLSLHPSAGKSAMDSFPSHPQTPGLPDLQTKEQQSSPNTFAPYPLAGLNPNMNVNSMDMTGGLSVKDPSQSQSRLPQWTHPNSMDNLPSAASPLEQNPSKHGAIPGGLSIGPPGKSSIDDSYGRYDLIQNSESPASPPVAVPHSWSRAKSDSDKISNGSSINWPPEFHPGVPWKGLQNIDPENDPDVTPGSVPTGPTINTTIQDVNRYLLKSGGKLSDIKSTWSSGPTSHTQASLSHELWKVPRNSTAPTRPPPGLTNPKPSSTWGASPLGWTSSYSSGSAWSTDTSGRTSSWLVLRNLTPQIDGSTLRTLCLQHGPLITFHLNLTQGNAVVRYSSKEEAAKAQKSLHMCVLGNTTILAEFAGEEEVNRFLAQGQALPPTSSWQSSSASSQPRLSAAGSSHGLVRSDAGHWNAPCLGGKGSSELLWGGVPQYSSSLWGPPSADDSRVIGSPTPLTTLLPGDLLSGESL

Variants of: B1
Conditions: with pabp1_human PABPC1, P11940
Target sequence in this assay (P11940 whole entry): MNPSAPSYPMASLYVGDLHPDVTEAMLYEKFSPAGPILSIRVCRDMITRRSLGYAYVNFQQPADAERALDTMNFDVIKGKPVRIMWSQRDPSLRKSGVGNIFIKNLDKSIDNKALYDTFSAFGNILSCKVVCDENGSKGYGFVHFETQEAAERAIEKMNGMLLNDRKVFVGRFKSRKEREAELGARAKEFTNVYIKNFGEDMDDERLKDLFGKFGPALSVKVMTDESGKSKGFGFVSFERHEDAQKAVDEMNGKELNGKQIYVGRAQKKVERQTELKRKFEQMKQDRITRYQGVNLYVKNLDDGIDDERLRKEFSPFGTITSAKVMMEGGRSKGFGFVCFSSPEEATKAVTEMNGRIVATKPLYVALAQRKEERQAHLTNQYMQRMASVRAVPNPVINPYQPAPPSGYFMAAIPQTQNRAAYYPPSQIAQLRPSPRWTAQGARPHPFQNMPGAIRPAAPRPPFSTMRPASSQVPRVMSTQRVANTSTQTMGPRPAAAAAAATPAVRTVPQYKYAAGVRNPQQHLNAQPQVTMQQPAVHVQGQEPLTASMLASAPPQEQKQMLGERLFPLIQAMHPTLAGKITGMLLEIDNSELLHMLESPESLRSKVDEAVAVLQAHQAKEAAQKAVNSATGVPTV

Row | effect of a mutation on the interaction | Variant
1 | disrupting interaction | E1595A;F1596A
2 | disrupting interaction | W1602A;K1603A

Variants of: B2
Conditions: with pabp1_human PABPC1, P11940
Target sequence in this assay (P11940 whole entry): as above

Row | effect of a mutation on the interaction | Variant
3 | disrupting interaction | E1388A;F1389A;W1395A;K1396A
